Results from the supplement of paper PMC9170038.

System: MS2 coat protein
Assay: apparent KD of MS2 coat protein; designed switch direction (-1 OFF switch, 1 ON switch): -1; higher = weaker reporter binding
Method in brief: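 Normalised cluster fluorescence was curve-fitted, and each design's median over clusters is its apparent KD. Before this, SNAP-549-labelled MS2 coat protein was titrated from 0.7 or 1.5 nM, doubling to 3 µM, over RNA switches transcribed on Illumina chips by stalled E. coli RNA polymerase. Titrations had no input, 200 uM small-molecule ligand, or an oligonucleotide input, and steps lasted 0.8–1.5 h (lowest) to 10–20 min (highest).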

[1] = input ligand: microRNA oligo, concentration not stated

Row | Sequence | apparent KD of MS2 coat protein (input ligand: FMN 200 uM) [nM] | apparent KD of MS2 coat protein (input ligand: none) [nM] | apparent KD of MS2 coat protein [1] [nM] | apparent KD of MS2 coat protein (Eterna round: R95, input ligand: FMN 200 uM) [nM] | apparent KD of MS2 coat protein (Eterna round: R95, input ligand: microRNA oligo, concentration not stated) [nM] | apparent KD of MS2 coat protein (Eterna round: R95, input ligand: none) [nM]
1 | GGUUGGCGAGGAUAUACAUGAGGAUCACCCAUGUGGUCCUGUGGCUGAUCAAGCCUAUGUAGAAGGCGCAAAUC [salish99_ex3_r4_012] (Eterna round: R97, puzzle: Exclusion 3) | 137 | 257 | – | – | – | –
2 | GGUUUGGGAGGAUAUGGUUUUAAUAACAUGAGGAUCACCCAUGUAAAUAGAUCCUCAAGGCCAGAAGGCUCAAACC [-26.1, -25.22 kcal, A 33%] (Eterna round: R97, puzzle: Exclusion 5) | 212 | 1980 | – | – | – | –
3 | GGUUUGGGAGGAUAUGGUUUUAAUAACAUGAGGAUCACCCAUGUAAAUAGAUCCUCGAGGCCAGAAGGCUCGGGCC [-24.9, -23.72 kcal, A 28%] (Eterna round: R97, puzzle: Exclusion 5) | 405 | 85.7 | – | – | – | –
4 | GUAAACGAAGAGGAUAUUUGAUAUCAUAGCUUCAAAGAAGGCUUCACAUGAGGAUCACCCAUGUGAUCUUCAAG [Mat - Exclusion 6 - JL Mod - D21] (Eterna round: R97, puzzle: Exclusion 6) | 199 | 34.8 | – | – | – | –
5 | GUAAACGAUGAGGAUAUAUGAUAUCAAAGCAUCAUAGAAGGCAUCACAUGAGGAUCACCCAUGUGAUCUUCUUG [Mat - Exclusion 6 - JL Mod - D30] (Eterna round: R97, puzzle: Exclusion 6) | 135 | 31.3 | – | – | – | –
6 | GUAAACGCAGAGGAUAUUUCAGAUCCUAGCUGCAAAGAAGGCUGCACAUGAGGAUCACCCAUGUGGUCCUGAAG [Mat - Exclusion 6 - Eli Mod - D2] (Eterna round: R97, puzzle: Exclusion 6) | 191 | 68.2 | – | – | – | –
7 | GUAAAUCAUGUAGGAUAUGCAUAGCAAAGCUAUGCAGAAGGACAUGAGGAUCACCCAUGUCAUUCCGUCUGGAGACAGACGGGA [Mat - Exclusion NG 1 - Mod of JL - D58] (Eterna round: R96, puzzle: Exclusion NG 1) | 270 | 36.7 | 22.5 | – | – | –
8 | GUAAUUAAUGUAGGAUAUGCAAGGCGAACCUAAGCAGAAGGACAUGAGGAUCACCCAUGUAUUGCGGUCUGCGUACAGAUCGCU [salish99_ExNG1_r4_008] (Eterna round: R96, puzzle: Exclusion NG 1) | 45.7 | 19.9 | 18.5 | – | – | –
9 | GUAAUUAUAUAGGAUAUCGAACUUAUAAUUUAACGAGAAGGAUGAACAUGAGGAUCACCCAUGUGGUAUCAUGG [JL-ex6-3.07] (puzzle: Exclusion 6) | – | – | – | 131 | 207 | 284
10 | GUACAUUUAGGAUAUACGGCAGCCAAUGCAAGGGUUCUAUAACAUGAGGAUCACCCAUGUAGAAGGAGAGGGCG [Eternabot (L2) Solution 21] (Eterna round: R97, puzzle: Exclusion 2) | 70.8 | 55.2 | – | – | – | –
11 | GUACCAAAUGUAGGAUAUGGAUCCGAUUAGGAUCCAGAAGGACAUGAGGAUCACCCAUGUACAUGAGGAUCACCCAUUAGGUAC [Fiskers ExNg1 - 11] (Eterna round: R96, puzzle: Exclusion NG 1) | 97.2 | 34.2 | 26.3 | – | – | –
12 | GUACUACAUGAGGAUCACCCAUGUCAGGAUAUGCGAAUUUCAUCAAAAGAUGAAAUUUGCAGAAGGGACAGUAC [Omei Ex1 A1] (Eterna round: R97, puzzle: Exclusion 1) | 35.3 | 24.1 | – | – | – | –
13 | GUACUAGAAUAUCAGUCGCACAUGAGGAUCACCCAUGUCAUGGGUAGAUCAAUAAAUAAAGAUACUGCUCGUCUUAU [Cac sensor turnoff var1 sub2] (Eterna round: R97, puzzle: Sensor, turn-off variant 1) | 496 | 378 | – | – | – | –
14 | GUACUGAAGCUUUGCUUUAGUCGUACAUGAGGAUCACCCAUGUAGGAUAUGGUAGGCAUAGCUUACUAGAAGGAUAGAGUGAUC [Mat - Exclusion NG 3 - Mod of JL - D64] (Eterna round: R96, puzzle: Exclusion NG 3) | 112 | 81.3 | 86 | – | – | –
15 | GUACUGACAGGAUAUACAUGAGGAUCACCCAUGUGCCCUUAAAGAUGCAAAGCAUCAAGUAGAAGGGUCUGUAC [Omei Ex3 Model Bachelor's Dilema v21] (Eterna round: R97, puzzle: Exclusion 3) | 53 | 40.5 | – | – | – | –
